A word on the Kd: it is the constant that tells how readily two partners part at equilibrium. A high value points to a looser complex.

20 molecules from paper PMC9352680, “A comprehensive thermodynamic model for RNA binding by the Saccharomyces cerevisiae Pumilio protein PUF4” can be followed below.

Sequences and labels used below:
T1: PUF4 RNA-binding domain (Saccharomyces cerevisiae, UniProt P25339 537-888)
T1 sequence: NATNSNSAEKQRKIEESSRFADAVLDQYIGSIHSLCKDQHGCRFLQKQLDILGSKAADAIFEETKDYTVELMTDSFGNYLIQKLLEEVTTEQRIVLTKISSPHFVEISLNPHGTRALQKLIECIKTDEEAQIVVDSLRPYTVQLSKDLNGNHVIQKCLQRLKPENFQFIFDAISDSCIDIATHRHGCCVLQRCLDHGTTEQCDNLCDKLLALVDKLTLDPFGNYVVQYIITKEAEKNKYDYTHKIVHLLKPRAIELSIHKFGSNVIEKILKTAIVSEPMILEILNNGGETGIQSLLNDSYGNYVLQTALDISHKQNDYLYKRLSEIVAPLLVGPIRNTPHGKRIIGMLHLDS

B1: Ib_S2_P3E.1_K3.1_C3.1_H3.1_[A4G]_A3.1_[T5C]_F3.1_T3.1 (ssRNA)
RNA: UUUGAUUAAUAUGAUAUCGUUCUUUCUUGUGCAUAUUCUUUCUCGAUAUCAUAUUAAUCUUU
B2: Ib_S2_P3E.1_K3.1_C3.1_H3.1_[A4C]_A3.1_[T5C]_F3.1_T3.1 (ssRNA)
RNA: B1 RNA with G31C
B3: Ie_S4_P4E.1_K4.1_C4.1_H4.1_A4.1_[+6TC]_F4.1_T4.1 (ssRNA)
RNA: UUUGACAACUGAUCGUUCUUUCUUGUAUAUCUUAUUCUUUCUCGAUCAGUUGUCUUU
B4: Ie_S4_P4E.1_K4.1_C4.1_H4.1_A4.1_F4.1_[+8CT]_T4.1 (ssRNA)
RNA: B3 RNA with C31U, U32C
B5: Ie_S4_P5E.1_K5.1_C5.1_H5.1_A5.1_[+5TTCC]_F5.1_T5.1 (ssRNA)
RNA: UUUGACAACUGAUCGUUCUUUCUUGUAUUUCCUAUUAUUCUUUCUCGAUCAGUUGUCUUU
B6: Ie_S4_P4E.1_K4.1_C4.1_H4.1_A4.1_F4.1_[+8CCTCT]_T4.1 (ssRNA)
RNA: B5 RNA with U29A, C31U, U33C, A34U, U35C
B7: Ie_S4_P4E.1_K4.1_C4.1_H4.1_A4.1_[+6CTCT]_F4.1_T4.1 (ssRNA)
RNA: UUUGACAACUGAUCGUUCUUUCUUGUAUACUCUUUAUUCUUUCUCGAUCAGUUGUCUUU
B8: Ie_S4_P4E.1_K4.1_C4.1_H4.1_A4.1_F4.1_[+8TCTC]_T4.1 (ssRNA)
RNA: B7 RNA with C30U, C32U, U33C, U35C
B9: Ie_S4_P4E.1_K4.1_C4.1_H4.1_A4.1_[+6CCCT]_F4.1_T4.1 (ssRNA)
RNA: B7 RNA with U31C
B10: Ie_S4_P4E.1_K4.1_C4.1_H4.1_A4.1_[+7TCTC]_F4.1_T4.1 (ssRNA)
RNA: B7 RNA with C30U, U34C
B11: Ie_S4_P4E.1_K4.1_C4.1_H4.1_A4.1_[+6TCTC]_F4.1_T4.1 (ssRNA)
RNA: B7 RNA with C30U, U31C, C32U, U33C
B12: Ie_S4_P4E.1_K4.1_C4.1_H4.1_A4.1_[+7C]_F4.1_T4.1 (ssRNA)
RNA: UUUGACAACUGAUCGUUCUUUCUUGUAUAUCUAUUCUUUCUCGAUCAGUUGUCUUU
B13: Ie_S4_P4E.1_K4.1_C4.1_H4.1_A4.1_F4.1_[+8C]_T4.1 (ssRNA)
RNA: B12 RNA with C31U, U32C
B14: Ie_S4_P4E.1_K4.1_C4.1_H4.1_A4.1_[+6CCT]_F4.1_T4.1 (ssRNA)
RNA: UUUGACAACUGAUCGUUCUUUCUUGUAUACCUUUAUUCUUUCUCGAUCAGUUGUCUUU
B15: Ie_S4_P4E.1_K4.1_C4.1_H4.1_A4.1_[+6CTC]_F4.1_T4.1 (ssRNA)
RNA: B14 RNA with C31U, U32C
B16: Ie_S4_P4E.1_K4.1_C4.1_H4.1_A4.1_[+6TTT]_F4.1_T4.1 (ssRNA)
RNA: B14 RNA with C30U, C31U
B17: Ie_S4_P4E.1_K4.1_C4.1_H4.1_A4.1_F4.1_[+8TCC]_T4.1 (ssRNA)
RNA: B14 RNA with C30U, C31U, U33C, U34C
B18: Ie_S4_P4E.1_K4.1_C4.1_H4.1_A4.1_[+7CTC]_F4.1_T4.1 (ssRNA)
RNA: B14 RNA with C30U, U33C
B19: Ie_S4_P4E.1_K4.1_C4.1_H4.1_A4.1_[+6TCT]_F4.1_T4.1 (ssRNA)
RNA: B14 RNA with C30U
B20: Ie_S4_P4E.1_K4.1_C4.1_H4.1_A4.1_[+7TTC]_F4.1_T4.1 (ssRNA)
RNA: B14 RNA with C30U, C31U, U33C

Positions count from the first letter of the chain named. In names and notes the source's numbering stands.

For this data set, the target named is T1, PUF4 RNA-binding domain. Kind of data set: Mg; RNA-MaP; 20 mM Na-HEPES pH 7.4, 30 mM KOAc, 0.75 mM MgCl2, 0.1% Tween-20, 5% glycerol, 0.1 mg/mL BSA, 2 mM DTT; 25 C; 0.0125-409.6 nM protein. As to conditions: tags: N-His6-TEV cleaved; C-SNAP kept, Cy3B-labelled; label: tethered on chip by stalled RNA polymerase.
On to B1, for which the Kd is 24.6 nM. Next, B2: 581 nM; B3: 4.82 nM.

As for B4, the dissociation constant Kd is 3.92 nM. Molecule B5 returned a Kd of 9.15 nM. To B6 belongs 6.66 nM.

As for B7, the Kd was found to be 12 nM. To B8 belongs 5.61 nM; to B9, 22.2 nM; to B10, 6.61 nM. To B11 belongs 15.4 nM. Next, B12: 1.92 nM; B13: 13.1 nM. Turning to B14, the dissociation constant (Kd) is 11.2 nM. To B15 belongs 10.3 nM; to B16, 4.94 nM; to B17, 4.35 nM. Next, B18: 10.3 nM; B19: 8.73 nM; B20: 4.42 nM.
